From the nanobody polyreactivity screen of Harvey et al. (2022)

Experiment: yeast display, Sf9 membrane polyspecificity reagent, FACS + sequencing; frameworks hold sequencing errors
Summary of the method: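 Using colony PCR, genes from sorted yeast display clones were amplified, then sequenced on MiSeq at 2 × 250 and filtered by CDR length. The clones had been stained with 10% biotinylated, detergent-solubilized Sf9 membrane reagent for 1 hour at 4 °C and sorted by FACS into low and high (top ~1%) gates on anti-HA and streptavidin fluorescence. Polyreactivity labels come from the gate of origin.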
In the case of “QVQLVESGGGLVQAGGSLRLSCAASGTTFRANAMGWYRQAPAKERELVAAITSGGSTNYADSVKGRFTISRDNAKNTVYLQMNSLKPEDTAVYYCAKETYYGTDNFGQVGGEMDYWGQGNQVTVSS”, the “polyreactivity (PSR sort gate)” value is reported as “low polyreactivity”.
In the case of “QVQLVESGGGLVQAGGSLRLSCAASGTTFRFYAMGLYRQAPGKERELDAAINGSGGSTYYADSVKGRFTISRDNAKNTVYFQMISMKPEDTAVYYCAADGVPDALDRDYWGQGTQVNVSS”, the “polyreactivity (PSR sort gate)” value is reported as “low polyreactivity”.
In the case of “QVQLVESGGGLVQAGGSLRLSCAASGTTFTAYAMGWYREAPGKERELVAAINWSGGTTYYADSVKGRFTISRDNAKNTVYLQMTSLKPEDTAVYYCAVDGNFFVEVSPYDYWGQGTQVTVSS”, the “polyreactivity (PSR sort gate)” value is reported as “low polyreactivity”.
With “QVQLVESGGGLVQAGGSLRLSCAASGTTFYGYVMGWYRQAPGKQREWVAAISSSGGRTYYADSVKGRFTISRDNAKNTVYLQMNSLNPEDTAVYYCNTVQRYSTHYDYWGQGTQVTVSS” the “polyreactivity (PSR sort gate)” value was “high polyreactivity”.
In the case of “QVQLVESGGGLVQAGGSLRLSCAASGTTIQGYAMGWYRQAPGKERELVAAISGSGGTTYYADSVKGRFTISRDNAKNTVYLQMNSLKPEDTAVYYCAAYVFYNFGVYTRGYYYWGQGTQVTVSS”, the “polyreactivity (PSR sort gate)” value is reported as “high polyreactivity”.
With “QVQLVESGGGLVQAGGSLRLSCAASGVIFYRNAMGWYRQAPGKERELVATIRYSGGSTYYADSVKGRFTISRDNAKNTVYLEMNSLKPEDSAVYYCNARRWYLPRRSGYGYWGQGTVVTVSS” the “polyreactivity (PSR sort gate)” value was “high polyreactivity”.
With “QVQLVESGGGLVQAGGSLRLSCAASGVTFDAYVMGWYRQAPRKERELVAGIYSGGSTYYADSVKGRFTISRDNAKNTVYLQMNSLKPEDTAVYYCARENYRFAHEPPVSRQIPYDYWGQGTQVTVSS” the “polyreactivity (PSR sort gate)” value was “low polyreactivity”.
For “QVQLVESGGGLVQAGGSLRLSCAASGVTFESYDMGWYRQAHGKERELVAAITWDGGSTYYADSVKGRFTISRDNAKNTVYLQMNSLKPEDTAVYYCAADFGTISIDVYSWMDYWGQGTQVTVSS”, the “polyreactivity (PSR sort gate)” value was “low polyreactivity”.
For “QVQLVESGGGLVQAGGSLRLSCAASGVTFQFYARGWYREAPGKERELVAAISRRGGRTDYADSVTGRFTISRDNAKNTAYLQMNSLKPEDTAVYYCARDPGAFEYWGQGTQVTVSS”, the “polyreactivity (PSR sort gate)” value was “high polyreactivity”.
For “QVQLVESGGGLVQAGGSLRLSCAASGVTFYHNAMGSYRQAPGKERELVAAISSSGDSTYYADSVKGRFTISRDNAKNTVYLHMNSLKPEDTAVYYCNDYFYYLSLYYYYWFNYDYWGQGTQVTVSS”, the “polyreactivity (PSR sort gate)” value was “low polyreactivity”.
For “QVQLVESGGGLVQAGGSLRLSCAASGYFDLNAMGWYRQAPGKERELVAAITDGGSTNYADSVKGRFTISRDNAKNTVYLQMNSLKPEDTAVYYCAADRGHTILHGGYWGQGTQVTVSS”, the “polyreactivity (PSR sort gate)” value was “low polyreactivity”.
For “QVQLVESGGGLVQAGGSLRLSCAASGYIFDAYAMGWYRQAPGKERELVAAIDIGGSTYYADSVKGRFTISRDNAKNTVYLQMNSLKPEDTAVYYCAEWFYFDQWDYAREYWGQGTQVTVSS”, the “polyreactivity (PSR sort gate)” value was “low polyreactivity”.
In the case of “QVQLVESGGGLVQAGGSLRLSCAASGYIFDPNAMGWYRQAPGKERELVAAISGSGTSTYYADSVKGRFTISRDNAKNTVYLQMNSLKPEDTAVYYCAAAHDAGPVRYYYWGQGTQVTVSS”, the “polyreactivity (PSR sort gate)” value is reported as “low polyreactivity”.
With “QVQLVESGGGLVQAGGSLRLSCAASGYIFDVNAMGWSRPAPGKESELVASISRSGASTYYADSVKGRFTISRDNAKNTVYLQMNSLQPEDTAVYYCNAVSRYCEYDSWGQGTQVTVSS” the “polyreactivity (PSR sort gate)” value was “high polyreactivity”.
With “QVQLVESGGGLVQAGGSLRLSCAASGYIFDYYAMGWYRQAPWKERELVAAISSSGGTTYYADSVKGRFTISRDNAKNTVYLQMNSLKPEDTAVYYCAARKSRWQRGYYYWGQGTQVTVSS” the “polyreactivity (PSR sort gate)” value was “high polyreactivity”.
For “QVQLVESGGGLVQAGGSLRLSCAASGYIFFGNAMGWYRQAPGKERELVAAIRWRGTSTYYADSVKGRFTISRDNAKNTVYLQMNSLKPEDTAVYYCAADVVRYNFYGTFLYDYDYWGQGTQVTVSS”, the “polyreactivity (PSR sort gate)” value was “low polyreactivity”.
For “QVQLVESGGGLVQAGGSLRLSCAASGYIFGSYVMGWYRQAPGKERELVAAITRIGASTYYADSVKGRFTISRDNAKNNVYLQMNSLKPEDTAVYYCATDQGGYYENDYWGQGNQVTVSS”, the “polyreactivity (PSR sort gate)” value was “low polyreactivity”.
For “QVQLVESGGGLVQAGGSLRLSCAASGYIFGVYAMGWYRQAPGKERELVAAISYGVGSTSYADSVKGRFTISRDNAKNTVYLQMNSLKPEDTAVYYCAADVFFYVYEAYLLYYWGQGTQVTVSS”, the “polyreactivity (PSR sort gate)” value was “low polyreactivity”.
In the case of “QVQLVESGGGLVQAGGSLRLSCAASGYIFGVYVMGSYRQAPGKERELVAAITRGGGNTYYADSVKGRFTISRDNAKNSVYLQMNSLKPEDTAVYYCAARSLKSLSRYYYWGQGTQVTVSS”, the “polyreactivity (PSR sort gate)” value is reported as “high polyreactivity”.
For “QVQLVESGGGLVQAGGSLRLSCAASGYIFGWNAMGWYRQAPGKERELVASIRWGGGSTYYADSVKGRFTISRDNAKNTVYLQMNSLKPEDTAVYYCAAKRRYYGPWSRIGYDYWGQGTQVTVSS”, the “polyreactivity (PSR sort gate)” value was “low polyreactivity”.
For “QVQLVESGGGLVQAGGSLRLSCAASGYIFGWYAMGWYRQAPGKERELLATIDWSGDSTYYADSVKGRFTISRDNAKNTVYLQMNSLKPEDTAVYYCAVGYVVDTWDEYDYWGQGTQVTVSS”, the “polyreactivity (PSR sort gate)” value was “low polyreactivity”.
For “QVQLVESGGGLVQAGGSLRLSCAASGYIFGYYAMGWYRQAPGKERELVAAISTDGSTDYADSVKGRFTISRDNAKKTVYLQMNSLKPEDTAVYYCAKELFIVTNGVYIYDSWGQGTQVTVSS”, the “polyreactivity (PSR sort gate)” value was “low polyreactivity”.
With “QVQLVESGGGLVQAGGSLRLSCAASGYIFGYYVMGWYRQAPGKERELVAAISDSDITYYADSVKGRFTISRDNAKNTVYLQMNSLKPEDTAVYYCNKDHSLYEHNYWGQGTLVTVSS” the “polyreactivity (PSR sort gate)” value was “low polyreactivity”.
For “QVQLVESGGGLVQAGGSLRLSCAASGYIFGYYVMGWYRQAPGKERELVAAITGRGGSTYYADSVKGRFTISRDNAKNTVYLQMNSLKPEDTAVYYCAADATTYPYDPWHLYEIWEYYYWGQGTQVTVSS”, the “polyreactivity (PSR sort gate)” value was “low polyreactivity”.
In the case of “QVQLVESGGGLVQAGGSLRLSCAASGYIFHYNTMGWYRQAPGKERELVAAITWSGGNTYYADSVKGRFTISRDNAKNTVYLQMNSLKPEDTAVYYFAKLNYSPEATRSNYWGQGTQVTVSS”, the “polyreactivity (PSR sort gate)” value is reported as “low polyreactivity”.
For “QVQLVESGGGLVQAGGSLRLSCAASGYIFILYAKGWYRQATGKERQLVATISSNAVSTYYADSVKGRFTISRDNAKITVYLQMNSLKPEDTAVYYCNVEYTPNTVSGYDYWGQGTQVTVSS”, the “polyreactivity (PSR sort gate)” value was “low polyreactivity”.
For “QVQLVESGGGLVQAGGSLRLSCAASGYIFIRNAMGWYRQAPGKERELVAAISWTGGSTYYADSVKGRFTISRDNAKNTVYLQMNSLKPEDTAVYYCNKYYRAWLLWDYGYWGQGTQVTVSS”, the “polyreactivity (PSR sort gate)” value was “high polyreactivity”.
In the case of “QVQLVESGGGLVQAGGSLRLSCAASGYIFIWYDMGGYRQAPGKERELVAAISGSGGSTYYADSVKGRFTISRDNAKNTVYLQMNSLKPEDTAVYYCAAVPAHFYGYDYWGQGTQVTVSS”, the “polyreactivity (PSR sort gate)” value is reported as “low polyreactivity”.
In the case of “QVQLVESGGGLVQAGGSLRLSCAASGYIFKYNAMGWYRQAPGKERELVATIRGGGSTNYADSVKGRFTISRDNAKNTVYLQMNSLKPEDTAVYYCAAVQRYEYGYWGQGTQVTVSS”, the “polyreactivity (PSR sort gate)” value is reported as “high polyreactivity”.
In the case of “QVQLVESGGGLVQAGGSLRLSCAASGYIFLFYGMGWYRPAPGKERELVAAITYGGGSTYYADSVKGRFTISRDNAKNTVYLQMNSLKPEDTAVYYCNAPSRLSTIFYSGYDYWGQGTQVTVSS”, the “polyreactivity (PSR sort gate)” value is reported as “low polyreactivity”.
In the case of “QVQLVESGGGLVQAGGSLRLSCAASGYIFLNYAMGWYRQAPGKEREFVATITSSGGTTYYADSVKGRFTISRDNAKNTVYLQMNSLKPEDTAVYYCNADAGWYDWVYYVGRDYWGQGTQVTVSS”, the “polyreactivity (PSR sort gate)” value is reported as “low polyreactivity”.
In the case of “QVQLVESGGGLVQAGGSLRLSCAASGYIFLRNAMAWYTKAPGKERELVAAIRRTGGSTYYADSVKGRFTISRDNAKNTVYLQMNSLKPEDTAVYYCAKRSYTGYEYWGQGTQVTVSS”, the “polyreactivity (PSR sort gate)” value is reported as “low polyreactivity”.
With “QVQLVESGGGLVQAGGSLRLSCAASGYIFLRNAMGWSRQAPGKERELVAAIRRTGGSTYYADSVKGRFTISRDNAKNTVYLQMNSLKPEVTAVYYCAKRSYTGYEYWGQGTQVTVSS” the “polyreactivity (PSR sort gate)” value was “low polyreactivity”.
In the case of “QVQLVESGGGLVQAGGSLRLSCAASGYIFLSYAMGWYIQAPGKERELVAAISRGGRTYYADSVKGRFTISRDNAKNTVYLQMNSLKPEDTAVYYCNAVSTPGKYGYWGQGTQVTVSS”, the “polyreactivity (PSR sort gate)” value is reported as “high polyreactivity”.
With “QVQLVESGGGLVQAGGSLRLSCAASGYIFNKYVMGWYRQAPGKERELVAAISASGGSTYYADSVKGRFTISRDNAKNTVYLQMNSLKPEDTAVYYCAATLYRRMDYWGQGTQVTVSS” the “polyreactivity (PSR sort gate)” value was “high polyreactivity”.
In the case of “QVQLVESGGGLVQAGGSLRLSCAASGYIFNKYVMGWYRQAPGKERELVAAISASGGSTYYADSVKGRFTISRDNAKNTVYLQMNSLKPEDTSVYYCAATLYRRMDYWGQGTQVTVSS”, the “polyreactivity (PSR sort gate)” value is reported as “high polyreactivity”.
With “QVQLVESGGGLVQAGGSLRLSCAASGYIFPFNAMGWYRQAPGKERELVAAITNGGRTYYADSVKGRFTISRDNAKNTVYLQMNSLKPEDTAVYYCAAGSKSDMDWGQGTQVTVSS” the “polyreactivity (PSR sort gate)” value was “low polyreactivity”.
In the case of “QVQLVESGGGLVQAGGSLRLSCAASGYIFQDYAMGWYRQAPAKERELVARISAGGGRTYYADSVKGRFTISRENAMNTVYLQMNSLKPEDTAVYYCAAPLSYSWVYIVRYGYDYWGQGTQVTVSS”, the “polyreactivity (PSR sort gate)” value is reported as “low polyreactivity”.
In the case of “QVQLVESGGGLVQAGGSLRLSCAASGYIFQPYAMGWYRQAPGKERELVAAISWRGGSTYYADSVKGRFTISRDNAKNTVYLQMNSLKPEDTAVYYCAVDAWDTTHVYEQGAERDSWGQGTQVTVSS”, the “polyreactivity (PSR sort gate)” value is reported as “low polyreactivity”.
With “QVQLVESGGGLVQAGGSLRLSCAASGYIFRVYAMGWYRQAPGKERELVAAISGSGGRTYYADSVKGRFTISRDNAKNTVSLQMNSLKPEDTAVYYCAAYRVSDYDYWGQGTQVTVSS” the “polyreactivity (PSR sort gate)” value was “high polyreactivity”.
For “QVQLVESGGGLVQAGGSLRLSCAASGYIFRYYAMGWYRQAPGKERELVAAISRSGGNTYYADSVKGRFTISRDNAMITVYLQMNSLKPEDTAVYYCAVVLSTYSYADYDYWGQGTQVTVSS”, the “polyreactivity (PSR sort gate)” value was “high polyreactivity”.
For “QVQLVESGGGLVQAGGSLRLSCAASGYIFSINAMGWYRQAPGKERELVAAITSSGGSTYYADSVKGRFTISRDNAKNTVYLQMNSLKPEDTAVYYCNAYVRRTRDYDYWGQGTQVTVSS”, the “polyreactivity (PSR sort gate)” value was “high polyreactivity”.
With “QVQLVESGGGLVQAGGSLRLSCAASGYIFSSYAMGWYRQAPGKERELVAAISWTGGTYYADSVKGRFTISRDNAKNTVYLQMNSLKPEDTAVYYCAVRYKRKGSGYRTNAYDYWGQGTQVTVSS” the “polyreactivity (PSR sort gate)” value was “high polyreactivity”.
